Assay results as given in the supplement of paper PMC9170038.

Test system: MS2 coat protein
Test: apparent KD of MS2 coat protein; designed switch direction (-1 OFF switch, 1 ON switch): -1; higher = weaker reporter binding
Method in brief: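 Designed RNA switches with common flanks were made on Illumina chips by stalled E. coli RNA polymerase. Titration with SNAP-549-labelled MS2 coat protein doubled from 0.7 or 1.5 nM up to 3 µM. Apparent KD is each design's median over clusters after curve-fitting normalised fluorescence.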

[1] = input ligand: microRNA oligo, concentration not stated
[2] = Eterna round: R95, input ligand: microRNA oligo, concentration not stated
[3] = Eterna round: R95, input ligand: FMN 200 uM
[4] = Eterna round: R95, input ligand: none

AGAUGCUCAAGUCGACAUGAGGAUCACCCAUGUACAAUUAACGAGGAUAUCCGAGAUAAAUAAUAGGAGAAGGCGUGAUCAUGA [Mat - Exclusion NG 3 - Mod of JL - D54] (Eterna round: R96, puzzle: Exclusion NG 3)
apparent KD of MS2 coat protein (input ligand: FMN 200 uM): 66.2 nM
apparent KD of MS2 coat protein [1]: 110 nM
apparent KD of MS2 coat protein (input ligand: none): 470 nM

AGAUGCUCGAGUCGACAUGAGGAUCACCCAUGUACAGUUAAUGAGGAUAUCUGAGACAAAUAGUAGGAGAAGGCGUGAACAUGA [Ex NG3 #11] (Eterna round: R96, puzzle: Exclusion NG 3)
apparent KD of MS2 coat protein (input ligand: FMN 200 uM): 191 nM
apparent KD of MS2 coat protein [1]: 68.6 nM
apparent KD of MS2 coat protein (input ligand: none): 90.9 nM

AGAUGGCGAGGAUAUACAUGAGGAUCACCCAUGUGAAGAAUAAUAGUGAGGAAGAAAAGUAGAAGGCGCUGUCA [Mat - Exclusion 3 - Mod of Salish D33] (puzzle: Exclusion 3)
apparent KD of MS2 coat protein [2]: 37 nM

AGAUGGCGAGGAUAUACAUGAGGAUCACCCAUGUGAAGAUAAAUAGUGAGGAAGAAAAGUAGAAGGCGCUGUCA [Mat - Exclusion 3 - Mod of Salish D27] (puzzle: Exclusion 3)
apparent KD of MS2 coat protein [2]: 58.6 nM

AGAUGGCGAGGAUAUACAUGAGGAUCACCCAUGUGAGAUAAUAAAGUGAGGAAGAAAAGUAGAAGGCGCUGUCA [Mat - Exclusion 3 - Mod of Salish D13] (puzzle: Exclusion 3)
apparent KD of MS2 coat protein [3]: 221 nM
apparent KD of MS2 coat protein [2]: 53.7 nM
apparent KD of MS2 coat protein [4]: 56.8 nM

AGAUGUUAAGAGGAUAUCAGCCGAAACCGGCAGUGAGAAGGCUUGACAUGAGGAUCACCCAUGUUUUGCGGUAA [Intebiabe] (Eterna round: R97, puzzle: Exclusion 6)
apparent KD of MS2 coat protein (input ligand: FMN 200 uM): 300 nM
apparent KD of MS2 coat protein (input ligand: none): 35.6 nM

AGAUUACGAGGAUAUCGAUUUUAGUACAUGAGGAUCACCCAUGUUAUCCAGGUCUCGUUUCGAGAAGGCGUGAUUC [LRO-Ex5-07] (puzzle: Exclusion 5)
apparent KD of MS2 coat protein [2]: 196 nM

AGAUUACUGCGAGGAUAUACAUGAGGAUCACCCAUGUGGUGGUGUGAGGCAAAGCCUCACACCAUGUAGAAGGCGCAGUAAUCA [Mat - Exclusion NG 2 - Mod of JL - D22] (Eterna round: R96, puzzle: Exclusion NG 2)
apparent KD of MS2 coat protein (input ligand: FMN 200 uM): 150 nM
apparent KD of MS2 coat protein [1]: 23.3 nM
apparent KD of MS2 coat protein (input ligand: none): 44.5 nM

AGCAGUAGUAUCCGAUCCUACAUGAGGAUCACCCAUGUAGCUAGACGUGCACGCGAUGCUCGUCAGACUACCAGAUG [salish99_TOv1_r3_035] (puzzle: Sensor v3, turn-off variant 1)
apparent KD of MS2 coat protein [3]: 119 nM
apparent KD of MS2 coat protein [2]: 200 nM
apparent KD of MS2 coat protein [4]: 195 nM

AGCAUGCUAGGAUAUACGAAACAUUAGGGUUCUUUGUAUGAACAUGAGGAUCACCCAUGUAGAAGGAGCGUGCA [Mat - Exclusion 2 - Mod of Hyphema - D96] (puzzle: Exclusion 2)
apparent KD of MS2 coat protein [2]: 82.5 nM

AGCAUGUUAGGAUAUGCCAAAAUUAACCACGACUCAGUGAUGCAGAAGGAACAUGAGGAUCACCCAUGUGCUCC [Eternabot (L1) Solution 16] (Eterna round: R97, puzzle: Exclusion 4)
apparent KD of MS2 coat protein (input ligand: FMN 200 uM): 219 nM
apparent KD of MS2 coat protein (input ligand: none): 38.2 nM

AGCCACAGAGGAUAUACAUACAUCCAGUAGUAAAGAAUACUACAUGAGGAUCACCCAUGUAGAAGGCUGUGGCA [Omei Ex2 BD B13] (Eterna round: R97, puzzle: Exclusion 2)
apparent KD of MS2 coat protein (input ligand: FMN 200 uM): 308 nM
apparent KD of MS2 coat protein (input ligand: none): 86.4 nM

AGCCCUGCAGGAUAUGCCGAGGAUAACAUGAGGAUCACCCAUGUGACCGAUUGUUAGACUGCAGAAGGGCAUGGGA [salish99_ex5_r4_303] (Eterna round: R97, puzzle: Exclusion 5)
apparent KD of MS2 coat protein (input ligand: FMN 200 uM): 81.7 nM
apparent KD of MS2 coat protein (input ligand: none): 509 nM

AGCCUAGCAGGAUAUGCCCGGGAUAACAUGAGGAUCACCCAUGUGACUGAUUGAUGUCCUGCAGAAGGGCUAGGGA [JL-EX5-4.01 ViennaUCT mod] (Eterna round: R97, puzzle: Exclusion 5)
apparent KD of MS2 coat protein (input ligand: FMN 200 uM): 154 nM
apparent KD of MS2 coat protein (input ligand: none): 25.9 nM

AGCGAGGCAGGAUAUACAUGAGGAUCACCCAUGUGCUUGCAUGGCGUGGGACGUCAACGUAGAAGGGCCAUGCC [EX3 #68] (Eterna round: R97, puzzle: Exclusion 3)
apparent KD of MS2 coat protein (input ligand: FMN 200 uM): 76.3 nM
apparent KD of MS2 coat protein (input ligand: none): 117 nM

AGCGCCAUCGUGAGAUGGCGUAUUACAUGAGGAUCACCCAUGUAGGAUAUCGAUUGCUUUGCAGUCGAGAAGGACAUGUUCUUC [JL ENG3 3.80 Mod C] (Eterna round: R96, puzzle: Exclusion NG 3)
apparent KD of MS2 coat protein (input ligand: FMN 200 uM): 66 nM
apparent KD of MS2 coat protein [1]: 16 nM
apparent KD of MS2 coat protein (input ligand: none): 23.2 nM

AGCGCCAUCGUGAGAUGGCGUAUUACAUGAGGAUCACCCAUGUAGGAUAUCGAUUGCUUUGCAGUCGAGAAGGACAUGUUUUAG [JL ENG3 3.80 Mod E] (Eterna round: R96, puzzle: Exclusion NG 3)
apparent KD of MS2 coat protein (input ligand: FMN 200 uM): 200 nM
apparent KD of MS2 coat protein [1]: 69.4 nM
apparent KD of MS2 coat protein (input ligand: none): 74.3 nM

AGCUAGUGCCGAGGAUAUACAUGAGGAUCACCCAUGUAAGGCAGUCGGUUUCUGACUGCCAAUAUGUAGAAGGCGGCGUUGGCA [JL ENG2 1.48] (Eterna round: R96, puzzle: Exclusion NG 2)
apparent KD of MS2 coat protein (input ligand: FMN 200 uM): 45.4 nM
apparent KD of MS2 coat protein [1]: 15.8 nM
apparent KD of MS2 coat protein (input ligand: none): 15.7 nM

AGCUGAGCAGGAUAUACAUGAGGAUCACCCAUGUUGGUCAAGCGACGAUAGUCGCAAUGUAGAAGGGCUCAGCU [E3/8-D2] (Eterna round: R97, puzzle: Exclusion 3)
apparent KD of MS2 coat protein (input ligand: FMN 200 uM): 114 nM
apparent KD of MS2 coat protein (input ligand: none): 357 nM

AGCUGUGGCCGAGGAUAUACACAUGAGGAUCACCCAUGUAGGCGCGGAAACGCGCUAAAAGGGUUGUAGAAGGCGGUCUCAGCA [Eli eng2 - 054] (Eterna round: R96, puzzle: Exclusion NG 2)
apparent KD of MS2 coat protein (input ligand: FMN 200 uM): 471 nM
apparent KD of MS2 coat protein [1]: 165 nM
apparent KD of MS2 coat protein (input ligand: none): 114 nM

AGCUGUGGCCGAGGAUAUACAUGAGGAUCACCCAUGUUACAUAAUUAGGCCGGGUAACCGGCUCCGUAGAAGGCGGUCUCAGCA [Eli eng2 - 004] (Eterna round: R96, puzzle: Exclusion NG 2)
apparent KD of MS2 coat protein (input ligand: FMN 200 uM): 14.3 nM
apparent KD of MS2 coat protein [1]: 11.7 nM
apparent KD of MS2 coat protein (input ligand: none): 13.7 nM

AGCUGUGGCCGAGGAUAUCUAAACCUUCAAACCGAAAUAUAAUCGGACAUGAGGAUCACCCAUGUAGAGAAGGCGGUCUCAGCA [Eli eng2 - 034] (Eterna round: R96, puzzle: Exclusion NG 2)
apparent KD of MS2 coat protein [1]: 9.91 nM

AGCUGUGGCCGAGGAUAUCUAUCUCAUAAAACCGAAAUAUAAUCGGACAUGAGGAUCACCCAUGUAGAGAAGGCGGUCUCAGCA [Eli eng2 - 095] (Eterna round: R96, puzzle: Exclusion NG 2)
apparent KD of MS2 coat protein [1]: 20.1 nM

AGCUGUGGCCGAGGAUAUCUAUCUCCAAUAACCGAAAUAUAAUCGGACAUGAGGAUCACCCAUGUAGAGAAGGCGGUCUCAGCA [Eli eng2 - 090] (Eterna round: R96, puzzle: Exclusion NG 2)
apparent KD of MS2 coat protein [1]: 15 nM

AGCUGUGGCCGAGGAUAUCUAUUAAUCCAAACCGAAAUAUAAUCGGACAUGAGGAUCACCCAUGUAGAGAAGGCGGUCUCAGCA [Eli eng2 - 077] (Eterna round: R96, puzzle: Exclusion NG 2)
apparent KD of MS2 coat protein [1]: 53.5 nM

AGCUGUGGCCGAGGAUAUCUGAUAGUCCCAACCGAAAUAUAAUCGGACAUGAGGAUCACCCAUGUAGAGAAGGCGGUCUCAGCA [Eli eng2 - 070] (Eterna round: R96, puzzle: Exclusion NG 2)
apparent KD of MS2 coat protein (input ligand: FMN 200 uM): 214 nM
apparent KD of MS2 coat protein [1]: 57.9 nM
apparent KD of MS2 coat protein (input ligand: none): 73.9 nM

AGGAAUGAAGGAUAUACAUGAGGAUCACCCAUGUAAAACAAGAGAUUUGAUGUAUAAUGUAGAAGGUCAAGAAG [JR_Exclusion3_Sub003] (puzzle: Exclusion 3)
apparent KD of MS2 coat protein [3]: 25.2 nM
apparent KD of MS2 coat protein [2]: 30.5 nM
apparent KD of MS2 coat protein [4]: 35.5 nM

AGGAGCCCACGGGCUCCAAAACAUGAGGAUCACCCAUGUCAGUAGGAUAUCAUGCUUUUCUGCUGUGAGAAGGGCUGAUGUGGC [Esededor] (Eterna round: R96, puzzle: Exclusion NG 3)
apparent KD of MS2 coat protein (input ligand: FMN 200 uM): 199 nM
apparent KD of MS2 coat protein [1]: 33.8 nM
apparent KD of MS2 coat protein (input ligand: none): 49 nM

AGGAUGAGAGGAUAUACAAACGGUCCCACAAUCUCACGGGCACAUGAGGAUCACCCAUGUAGAAGGCUCAUUGG [EX2 B.28] (Eterna round: R97, puzzle: Exclusion 2)
apparent KD of MS2 coat protein (input ligand: FMN 200 uM): 325 nM
apparent KD of MS2 coat protein (input ligand: none): 49.6 nM

AGGCAAUCAGGAUAUACAUGAGGAUCACCCAUGUGUACAAAGCACAUCCGAUCUAGAUGUAGAAGGGAUAUGCA [Usmabesobi] (puzzle: Exclusion 3)
apparent KD of MS2 coat protein [2]: 18 nM

AGGUAACAUGAGGAUCACCCAUGUCAGGAUAUCAGUAAGAUGAGUAUAGAAGAGAGUAUGAGAAGGGACUAUAU [Excluse me! 25 - Jieux - Exclusion 1] (puzzle: Exclusion 1)
apparent KD of MS2 coat protein [2]: 31.2 nM
